In US20260317437 (published 2026):
Changes are numbered by the printed parent chain. Names and notes keep the numbering of the source. Read-outs that look alike come from different tables or passages of the source. Values belong to the binder of their own block, whether it stands above or below them.

How the values were obtained:
Assay in all cases: SPR
[1] = target: T1, GCGR extracellular domain (human, UniProt P47871)
[2] = target: T1, GCGR extracellular domain; remark: listed apart in the source
[3] = target: T1, GCGR extracellular domain; remark: listed apart in the source
[4] = target: T1, GCGR extracellular domain; remark: listed apart in the source

T1 sequence (P47871 26-477): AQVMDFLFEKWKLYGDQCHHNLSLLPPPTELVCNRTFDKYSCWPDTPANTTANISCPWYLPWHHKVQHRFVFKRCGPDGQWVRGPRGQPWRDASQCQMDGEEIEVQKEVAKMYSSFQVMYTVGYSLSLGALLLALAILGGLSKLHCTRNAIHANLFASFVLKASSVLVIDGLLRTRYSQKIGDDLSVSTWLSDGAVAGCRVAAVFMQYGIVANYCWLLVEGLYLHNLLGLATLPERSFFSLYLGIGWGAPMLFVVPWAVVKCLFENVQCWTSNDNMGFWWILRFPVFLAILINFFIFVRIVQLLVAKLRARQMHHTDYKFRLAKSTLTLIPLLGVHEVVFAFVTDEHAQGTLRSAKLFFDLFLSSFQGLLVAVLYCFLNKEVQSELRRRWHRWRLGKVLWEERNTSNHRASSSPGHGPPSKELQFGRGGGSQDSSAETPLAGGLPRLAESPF

Kd [1]: 5.14 nM | Kd [2]: 5.14 nM
B1: VH Y30H (antibody, V domains shown)
VH: EVQLVESGGGLVQPGGSLRLSCAASGFNIHYNYIHWVRQAPGKGLEWVAEFSPYSGSTYYADSVKGRFTISADTSKNTAYLQMNSLRAEDTAVYYCARSAAIVDWYDYFKGFDYWGQGTLVTVSS
VL: DIQMTQSPSSLSASVGDRVTITCRASQSVSSAVAWYQQKPGKAPKLLIYSASSLYSGVPSRFSGSRSGTDFTLTISSLQPEDFATYYCQQYGSYLYTFGQGTKVEIK

Kd [3]: 46 nM
B4: VH Y54A (antibody, V domains shown)
VH: B1 VH with H30Y, Y54A
VL: B1 VL

Kd [1]: 5.2 nM | Kd [2]: 5.2 nM
B5: VH W100aF (antibody, V domains shown)
VH: B1 VH with H30Y, W105F
VL: B1 VL

binding result [4]: no binding
B7: VH Y31N (antibody, V domains shown)
VH: B1 VH with H30Y, Y31N
VL: B1 VL

Kd [1]: 98.5 nM | Kd [3]: 0.84 nM
B8: VL Y91A (antibody, V domains shown)
VH: B1 VH with H30Y
VL: B1 VL with Y91A

Kd [3]: 0.32 nM
B12: VH Y59A (antibody, V domains shown)
VH: B1 VH with H30Y, Y59A
VL: B1 VL

Kd [1]: 16.3 nM | Kd [3]: 11 nM
B13: VH W100aA (antibody, V domains shown)
VH: B1 VH with H30Y, W105A
VL: B1 VL

Kd [3]: 0.74 nM
B14: VL Y55A (antibody, V domains shown)
VH: B1 VH with H30Y
VL: B1 VL with Y55A

binding result [4]: no binding
B16: VH Y31K (antibody, V domains shown)
VH: B1 VH with H30Y, Y31K
VL: B1 VL

binding result [4]: no binding
B17: VH W100aR (antibody, V domains shown)
VH: B1 VH with H30Y, W105R
VL: B1 VL

Kd [1]: 1.6 nM | Kd [2]: 1.6 nM
B24: VL Y94K (antibody, V domains shown)
VH: B1 VH with H30Y
VL: B1 VL with Y94K

Kd [3]: 0.93 nM
B25: VL Y96A (antibody, V domains shown)
VH: B1 VH with H30Y
VL: B1 VL with Y96A

The remaining lines, values behind:

B2: VH Y31A (antibody, V domains shown)
VH: B1 VH with H30Y, Y31A
VL: B1 VL
Kd [3]: 206 nM | binding result [4]: no binding

B3: VH W100aL (antibody, V domains shown)
VH: B1 VH with H30Y, W105L
VL: B1 VL
Kd [1]: 5.24 nM | Kd [2]: 5.24 nM

B6: anti-GCGR IgG1 parent (antibody, V domains shown)
VH: B1 VH with H30Y
VL: B1 VL
Kd [1]: 2.53 nM | Kd [3]: 0.61 nM | Kd [2]: 2.53 nM

B9: VH Y31E (antibody, V domains shown)
VH: B1 VH with H30Y, Y31E
VL: B1 VL
binding result [4]: no binding

B10: VH Y31R (antibody, V domains shown)
VH: B1 VH with H30Y, Y31R
VL: B1 VL
binding result [4]: no binding

B11: VH Y100bK (antibody, V domains shown)
VH: B1 VH with H30Y, Y106K
VL: B1 VL
Kd [1]: 7.75 nM | Kd [2]: 7.75 nM

B15: VH F51A (antibody, V domains shown)
VH: B1 VH with H30Y, F51A
VL: B1 VL
Kd [3]: 1.5 nM

B18: VH Y33A (antibody, V domains shown)
VH: B1 VH with H30Y, Y33A
VL: B1 VL
Kd [1]: 267 nM | Kd [3]: 53 nM

B19: VH Y100bR (antibody, V domains shown)
VH: B1 VH with H30Y, Y106R
VL: B1 VL
Kd [1]: 7.08 nM | Kd [2]: 7.08 nM

B20: VH Y31S (antibody, V domains shown)
VH: B1 VH with H30Y, Y31S
VL: B1 VL
binding result [4]: no binding

B21: VH W100aV (antibody, V domains shown)
VH: B1 VH with H30Y, W105V
VL: B1 VL
Kd [1]: 5.88 nM | Kd [2]: 5.88 nM

B22: VH Y100bH (antibody, V domains shown)
VH: B1 VH with H30Y, Y106H
VL: B1 VL
Kd [1]: 2.9 nM | Kd [2]: 2.9 nM

B23: VH Y100bQ (antibody, V domains shown)
VH: B1 VH with H30Y, Y106Q
VL: B1 VL
Kd [1]: 6.08 nM | Kd [2]: 6.08 nM

B26: VH W100aK (antibody, V domains shown)
VH: B1 VH with H30Y, W105K
VL: B1 VL
binding result [4]: no binding
